The assay concerns the target T1, filaggrin-2 (FLG2) fragment identified as prey in the double-hybrid screens, corresponding to amino acids … (human, UniProt Q5D862 2-213).
T1 construct: range 2-213; Prey
T1 sequence (looked up): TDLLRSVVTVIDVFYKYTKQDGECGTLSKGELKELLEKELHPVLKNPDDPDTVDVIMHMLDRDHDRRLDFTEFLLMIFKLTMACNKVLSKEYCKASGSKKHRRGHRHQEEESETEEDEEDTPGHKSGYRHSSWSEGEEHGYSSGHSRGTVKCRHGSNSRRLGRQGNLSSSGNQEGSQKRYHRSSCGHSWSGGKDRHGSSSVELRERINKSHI
The assay can be described thus: supplementary double-hybrid experiments.

B1: N-terminal fragment of SASPase-28 (amino acids 11-86, SEQ ID No.: 16) (peptide)
chain: RQHAFVPEPFDGANVVPNLWLHSFEVINDLNHWDHITKLRFLKESLRGEALGVYNRLSPQDQGDYGTVKEALLKAFG
With B1, the binding result is listed as “binds”.

For the origin of these results see patent US20130324477A1 (L OREAL, published 2013).
